Laboratory results taken from patent US20250257126A1 (CAMBRIDGE ENTERPRISE, published 2025).

Key:
[1] = biological target: T1, endogenous human LGR5 of cancer cell lines (human, UniProt O75473 22-907); assay: flow cytometry of LoVo and NALM6 cells after 60 minutes with fluorescent antibodies, α-HER2 against α-LGR5
T1 construct: Untagged LGR5 as expressed by human LoVo, NALM6, REH cells and CRC organoids; also called LGR5 on LoVo cells; LGR5 on NALM6 cells
T1 sequence: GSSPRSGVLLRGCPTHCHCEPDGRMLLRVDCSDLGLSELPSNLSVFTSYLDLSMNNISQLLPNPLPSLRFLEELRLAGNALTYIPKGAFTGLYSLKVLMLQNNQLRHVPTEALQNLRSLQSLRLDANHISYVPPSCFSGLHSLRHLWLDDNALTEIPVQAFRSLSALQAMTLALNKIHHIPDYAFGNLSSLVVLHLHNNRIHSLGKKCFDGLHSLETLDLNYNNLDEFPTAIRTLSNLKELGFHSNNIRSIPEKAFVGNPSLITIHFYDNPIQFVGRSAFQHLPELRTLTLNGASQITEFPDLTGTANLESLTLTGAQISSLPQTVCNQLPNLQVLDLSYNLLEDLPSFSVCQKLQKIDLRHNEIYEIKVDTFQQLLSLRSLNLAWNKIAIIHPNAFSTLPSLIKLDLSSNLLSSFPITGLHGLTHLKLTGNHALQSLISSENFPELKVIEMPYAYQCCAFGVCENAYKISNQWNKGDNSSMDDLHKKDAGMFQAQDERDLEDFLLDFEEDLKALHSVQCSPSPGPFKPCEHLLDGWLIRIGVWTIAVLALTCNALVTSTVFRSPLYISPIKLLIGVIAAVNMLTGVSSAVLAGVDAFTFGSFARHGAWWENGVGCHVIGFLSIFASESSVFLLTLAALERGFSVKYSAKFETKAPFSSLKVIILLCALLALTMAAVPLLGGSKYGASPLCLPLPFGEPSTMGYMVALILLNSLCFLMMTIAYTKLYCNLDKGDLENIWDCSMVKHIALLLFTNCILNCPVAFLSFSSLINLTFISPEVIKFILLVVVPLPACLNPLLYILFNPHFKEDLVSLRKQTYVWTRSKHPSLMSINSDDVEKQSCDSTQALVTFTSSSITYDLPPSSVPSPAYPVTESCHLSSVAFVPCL

[2] = biological target: T2, human LGR5-eGFP transgene (human, UniProt O75473 22-907); assay: western blot of lysates of HEK293T cells expressing mLGR5, hLGR5 or cynoLGR5 transgenes, probed with α-LGR5v4
T2 construct: Tested on live or fixed cells and as cell lysates on western blots; also called hLGR5-eGFP; LGR5-GFP
T2 sequence: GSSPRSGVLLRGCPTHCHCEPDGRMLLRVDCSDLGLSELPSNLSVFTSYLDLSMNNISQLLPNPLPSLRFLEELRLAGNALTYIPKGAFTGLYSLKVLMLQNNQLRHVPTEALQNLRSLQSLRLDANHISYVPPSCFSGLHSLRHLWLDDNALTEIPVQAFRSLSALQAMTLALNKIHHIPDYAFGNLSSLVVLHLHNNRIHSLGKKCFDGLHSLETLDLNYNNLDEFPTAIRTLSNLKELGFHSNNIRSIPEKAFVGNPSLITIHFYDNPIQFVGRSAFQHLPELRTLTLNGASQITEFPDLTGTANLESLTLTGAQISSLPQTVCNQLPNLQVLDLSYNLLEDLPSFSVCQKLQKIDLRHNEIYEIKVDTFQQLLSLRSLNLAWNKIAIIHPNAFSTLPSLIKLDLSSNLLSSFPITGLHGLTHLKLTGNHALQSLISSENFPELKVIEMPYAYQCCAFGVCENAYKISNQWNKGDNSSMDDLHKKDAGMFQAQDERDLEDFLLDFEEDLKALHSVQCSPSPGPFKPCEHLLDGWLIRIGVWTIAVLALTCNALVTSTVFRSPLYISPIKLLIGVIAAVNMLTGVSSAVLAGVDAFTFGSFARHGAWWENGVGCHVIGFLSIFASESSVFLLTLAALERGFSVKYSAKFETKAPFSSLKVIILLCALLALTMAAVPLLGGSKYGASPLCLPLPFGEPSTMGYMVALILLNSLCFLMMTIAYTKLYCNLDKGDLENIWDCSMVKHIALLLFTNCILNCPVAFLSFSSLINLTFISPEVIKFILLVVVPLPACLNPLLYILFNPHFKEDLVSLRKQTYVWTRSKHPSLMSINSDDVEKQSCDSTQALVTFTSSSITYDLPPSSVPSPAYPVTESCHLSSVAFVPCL
Procedure: (§1) B. Indirect immune fluorescence analysis of human and murine LGR family expressing HEK293T cells using the a-LGR5v4 antibody (in red), the Alexa488-coupled Phalloidin F-actin probe alongside eGFP fluorescence imaging. In the bottom row of images, LGR5-expressing HEK293T cells were stained with a-LGR5v6. C. H&E staining of tissue sections from a-LGR5v6-ADC (top row) and a-LGR5v4-ADC (bottom row) treated mice.
(§2) Western blots of HEK293t, LoVo and NALM6 lysates was carried out with 40 μg of protein.

murine LGR5 transgene [3] = biological target: T3, murine LGR5 transgene (mouse, UniProt Q9Z1P4 22-907); assay: as above
T3 construct: whole, on cells; Overexpressed in HEK293T cells with N-terminal HA tag, V2 receptor tail and eGFP; also tested as lysate; also called mLGR5; mLGR5-eGFP
T3 sequence (looked up): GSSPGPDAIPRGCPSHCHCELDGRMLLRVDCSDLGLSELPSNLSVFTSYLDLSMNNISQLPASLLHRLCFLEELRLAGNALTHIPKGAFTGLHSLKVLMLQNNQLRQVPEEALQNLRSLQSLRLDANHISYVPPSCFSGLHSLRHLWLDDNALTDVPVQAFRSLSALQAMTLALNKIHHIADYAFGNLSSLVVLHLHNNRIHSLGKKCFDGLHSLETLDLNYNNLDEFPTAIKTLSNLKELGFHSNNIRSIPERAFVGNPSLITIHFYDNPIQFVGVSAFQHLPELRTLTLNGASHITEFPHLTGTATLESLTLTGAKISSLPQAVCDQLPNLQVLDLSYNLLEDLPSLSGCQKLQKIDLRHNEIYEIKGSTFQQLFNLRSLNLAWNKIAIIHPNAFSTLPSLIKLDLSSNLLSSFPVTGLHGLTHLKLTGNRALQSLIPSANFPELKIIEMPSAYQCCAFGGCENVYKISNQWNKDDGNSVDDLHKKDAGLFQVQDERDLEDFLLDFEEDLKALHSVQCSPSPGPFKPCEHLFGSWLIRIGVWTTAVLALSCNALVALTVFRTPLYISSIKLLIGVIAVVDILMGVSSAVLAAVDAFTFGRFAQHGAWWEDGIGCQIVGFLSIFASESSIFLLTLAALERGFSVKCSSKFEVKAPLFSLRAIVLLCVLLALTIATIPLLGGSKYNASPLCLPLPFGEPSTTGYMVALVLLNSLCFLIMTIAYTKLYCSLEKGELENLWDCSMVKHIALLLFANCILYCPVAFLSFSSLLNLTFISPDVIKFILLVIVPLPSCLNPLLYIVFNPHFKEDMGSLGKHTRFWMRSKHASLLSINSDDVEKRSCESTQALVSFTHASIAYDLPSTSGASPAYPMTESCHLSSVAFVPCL
Procedure: as §1, §2

[4] = biological target: T2, human LGR5-eGFP transgene; assay: western blot of HEK293T lysates expressing the human LGR family transgenes
[5] = biological target: T2, human LGR5-eGFP transgene; assay: western blot of lysates of HEK293T cells expressing mLGR5, hLGR5 or cynoLGR5 transgenes, probed with hybridoma clone 1
murine LGR5 transgene [6] = biological target: T3, murine LGR5 transgene; assay: as above
[7] = biological target: T2, human LGR5-eGFP transgene; assay: western blot of lysates of HEK293T cells expressing mLGR5, hLGR5 or cynoLGR5 transgenes, probed with hybridoma clone 4
murine LGR5 transgene [8] = biological target: T3, murine LGR5 transgene; assay: as above

B1: α-LGR5 variant 4 (antibody, human IgG1, kappa, V domains shown)
VH: QVQLVQSGAEVKKPGASVKVSCKASGYTFTNYWMQWVRQAPGQGLEWIGEIDPSDSYTNYNQKFQGRVTLTVDTSTSTAYMELSSLRSEDTAVYYCARSLSGYVDYWGQGTTVTVSS
VL: EIVMTQSPATLSLSPGERATLSCRASQDISNRLNWYQQKPGQAVRLLISYRSRRHTGIPARFSGSGSGTDYTLTISSLEPEDFAVYYCQQGNSLPPTFGGGTKLEIKR
notes: Humanized antibody; also called α-LGR5v4; clone 2.4
binding result [1]: binds | binding result [2]: binds | binding result (murine LGR5 transgene [3]): no binding

B2: hybridoma clone 12 (antibody, V domains shown)
VH: EVQLQQSGPELVKPGASVKISCKASGYTFTDYYMNWVKQSHGKSLEWIGDINPNNGGTIYNQKFKGKATLTVDKSSSTAYMELRSLTSEDSAVYYCASGYLFDYWGPGTTLTVSS
VL: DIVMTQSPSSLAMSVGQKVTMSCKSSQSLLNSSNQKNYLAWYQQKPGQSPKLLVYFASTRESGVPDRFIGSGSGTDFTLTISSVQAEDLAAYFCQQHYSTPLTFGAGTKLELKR
notes: Murine antibody; also called antibody 12
binding result [4]: binds

B3: α-LGR5 clone 1 (antibody, mouse IgG1, kappa, V domains shown)
VH: QVQLQQPGAELVKPGASVKLSCKASGYTFTSYWMQWVKQRPGQGLEWIGEIDPSDYYTNYNQKFKGKATLTVDTSSSTAYMQLSSLTSEDSAVYYCARSLSGYVDYWGQGTTLTVSS
VL: DIQMTQSTSSLSASLGDRVTINCRASQDIRNRLNWYQQKPDGTVKLLISYRSRLQSGVPSRFSGSGSGTEYSLTISNLEQEDIATYFCQQGNTLPPTFGGGTKLEVRR
notes: Murine monoclonal antibody from hybridoma; also called hybridoma clone 1; antibody 1
binding result [5]: binds | binding result (murine LGR5 transgene [6]): no binding

B4: α-LGR5 clone 4 (antibody, mouse IgG2b, kappa, V domains shown)
VH: QVQLQQPGAELVKPGASVKLSCKASGYTFTDYWMQWVKQRPGQGLEWIGEIDPSDSYTNYNQKFQGKATLTVDTSSSTAYIQLSSLTSDDSAVYYCARSLSGSVDYWGQGTTLTVSS
VL: DIQMTQTTSSLSASLGDRVTISCRASQDISNRLNWYQQKPDGTVKLLISYRSRLQSGVPSRFSGSGSGTDYSLTITNLEQEDIATYFCQQGNTLPPTFGGGTKLEVRR
notes: Murine monoclonal antibody from hybridoma; also called hybridoma clone 4; antibody 4
binding result [7]: binds | binding result (murine LGR5 transgene [8]): no binding
